Several values for one entry are separate records, joined by “and”; a condition that tells them apart may be missing. Equal entries are not always repeated.
What was measured:
human TMEM106B [1] = target: T1, human TMEM106B (human, UniProt Q9NUM4 2-274); test: FACS A549
T1 construct: Full-length, on transiently transfected HEK293 cells, or natively expressed on HeLa, U251 and A549 cells; also called huTMEM106B; huTMEM
Method: All cells were cultured in either T75 or T150 flasks. […] The enzyme was quenched by addition of fresh media, and the cells were then distributed into 96-well plates for FACS analysis.
FACS analysis was performed as follows. Each cell type was aliquoted in 96-well round bottom plates (2x10^5 cells per well), washed once with FACS buffer (PBS + 2% FBS + 1 mM EDTA), and incubated with 50 µL of hybridoma supernatant or purified antibody (10 µg/ml in FACS buffer) on ice for 1 hour. […] Following this secondary incubation, the cells were again washed 2x with ice-cold FACS buffer and resuspended in a final volume of 50 µL of FACS buffer + 0.25 µl/well propidium iodide (Fisher Scientific # BDB556463). Analysis was performed on a FACSCanto system (BD Biosciences) or iQue (Intellicyt), with sort gates drawn to exclude dead (i.e., propidium iodide positive) cells.
Data is presented as mean fluorescence intensity (MFI).

human TMEM106B [2] = target: T1, human TMEM106B; test: FACS HeLa;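 also: flow cytometry of cells incubated with hybridoma supernatant or purified antibody at 10 µg/ml for 1 h on ice, propidium iodide–positive dead cells gated out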
human TMEM106B [3] = target: T1, human TMEM106B; test: FACS U251;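 also: flow cytometry of cells exposed to antibody (purified at 10 µg/mL, or hybridoma supernatant) for 1 h on ice, with propidium iodide-positive dead cells gated out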
mouse TMEM106B [4] = target: T2, mouse TMEM106B (mouse, UniProt Q80X71 2-275); test: FACS Neuro2a;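 also: flow cytometry of cells stained with antibody or hybridoma supernatant (purified antibody at 10 µg/ml) for 1 h on ice, propidium iodide–positive dead cells gated out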
T2 construct: on transiently transfected HEK293 cells, or natively expressed on mouse Neuro2a cells; also called moTMEM106B; murine TMEM106B

GST (Pierce) = target: T3, GST (Pierce) (UniProt P08515 1-218 = GST, limits assumed); test: ELISA, coated GST;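 also: ELISA on plates coated with GST alone at 1-10 µg/ml, antibodies applied at 100-1000x dilution, bound antibody detected by peroxidase substrate colour after acid stop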
T3 construct: control for the GST part of the fusion protein; also called GST protein; Glutathione-S-transferase
Method: Briefly, 96-well polystyrene plates were coated with 1-10 µg/ml of recombinant GST-TMEM106B-truncated protein or GST (Pierce) in PBS either at 370 Cfor 1-4 hours or overnight at 4 °C. Coated plates were then blocked with 5% BSA for 1-hour, washed 3×150 µL in TBST (Tris-buffered saline + 0.1% Tween20), and then the antibodies were added at various dilutions (100-1000x) in PBS. After 1-hour incubation (room temperature, with shaking), the plates were washed 3x150 µL in TBST. […] After a final set of washes (3×150µL in TBST), 100 µL of peroxidase substrate was added for 1 minute; the reaction was then quenched with 2N sulfuric acid (100 µL).

human TMEM106B [5] = target: T1, human TMEM106B; test: FACS A549, 1 ug/ml
Method: (§1) Purified anti-TMEM106B antibodies were evaluated for their binding affinity to various TMEM106B-expressing cell lines including HEK293 transiently transfected with human/cyno/mouse TMEM106B, as well as HeLa cells and A549 cells. Antibodies tested for this experiment were mouse IgGs purified from hybridoma supernatant. Affinity binding to cells was determined as follows. Briefly, 1x10^5 cells were aliquoted per well in 96-well round bottom plates and incubated with 50 µL of purified anti-TMEM106B antibody at various concentrations (10x dilutions starting at 10 µg/ml) in FACS buffer (PBS + 2% FBS + 1 mM EDTA). […] Sorting was performed on a iQue (Intellicyt), with sort gates drawn to exclude dead (propidium iodide +) cells. Binding data was analyzed using median fluorescent intensity (MFI) and graphed in Prism. Values presented are MFI.

human TMEM106B [6] = target: T1, human TMEM106B; test: FACS A549, 10 ug/ml
Method: as §1

human TMEM106B [7] = target: T1, human TMEM106B; test: FACS, HEK293 transfectants;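 as to fold over negative controls: hybridoma supernatants incubated 30 min on ice with human TMEM106B-expressing HEK293 cells, binding read as anti-mouse-APC median fluorescence on live cells, relative to secondary-antibody-only wells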;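 as to fold-change over parental HEK293: flow cytometry binding of hybridoma supernatants to HEK293 cells transiently expressing human, cyno or mouse TMEM106B, read as anti-mouse-APC median fluorescence, live cells only, 30 min on ice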
Method: Initial screening of the anti-TMEM106B hybridomas was performed as follows.
For screening of the hybridoma cell culture supernatants, humanTMEM106B-transfected HEK293 cells were aliquoted in 96-well round bottom plates (2x10^5 cells per well) and incubated with 50 µL of hybridoma cell culture supernatant on ice for 30 minutes. […] Cell sorting was performed on a FACS Canto system (BD Biosciences) or iQue (Intellicyt), with sort gates drawn to exclude dead (i.e., propidium iodide-positive) cells. Median fluorescence intensity (MFI) of anti-mouse-APC MFI on TMEM106B+ HEK293 cells was calculated for each clone, and those displaying a signal of at least 2-fold over background compared to a secondary-antibody only well were taken forward for further analysis and characterization.

[8] = target: T4, GST-fusion human TMEM106B truncated (human); test: array SPR, Ab immobilised;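 also: antibodies amine-coupled on an MX-96 chip, antigen flowed at 500 nM top concentration in 5-fold serial dilutions, GST alone run as nonspecific-binding control, duplicate measurements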
T4 construct: also called GST-TMEM106B-truncated protein; GST-TMEM106B (truncated)

human TMEM106B [9] = target: T1, human TMEM106B; test: FACS HEK+huTMEM, 10 ug/ml;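 also: purified mouse IgG antibodies at 10 µg/ml bound to HEK293 cells transiently expressing human TMEM106B, measured by flow cytometry as median fluorescence intensity of propidium iodide negative live cells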
Method: as §1

human TMEM106B [10] = target: T1, human TMEM106B; test: FACS, HEK293 transfectants; remark: listed apart in the source;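 as to fold over negative controls: hybridoma supernatants incubated 30 min on ice with human TMEM106B-expressing HEK293 cells, binding read as anti-mouse-APC median fluorescence on live cells, relative to secondary-antibody-only wells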;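 as to fold-change over parental HEK293: flow cytometry binding of hybridoma supernatants to HEK293 cells transiently expressing human, cyno or mouse TMEM106B, read as anti-mouse-APC median fluorescence, live cells only, 30 min on ice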
Method: (§2) For screening of the hybridoma cell culture supernatants, humanTMEM106B-transfected HEK293 cells were aliquoted in 96-well round bottom plates (2x10^5 cells per well) and incubated with 50 µL of hybridoma cell culture supernatant on ice for 30 minutes. […] Median fluorescence intensity (MFI) of anti-mouse-APC MFI on TMEM106B+ HEK293 cells was calculated for each clone, and those displaying a signal of at least 2-fold over background compared to a secondary-antibody only well were taken forward for further analysis and characterization.

[11] = target: T5, cynomolgus (cyno) TMEM106B (cynomolgus, UniProt Q9NUM4 2-274 (human entry)); test: FACS, HEK293 transfectants;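 also: flow cytometry binding of hybridoma supernatants to HEK293 cells transiently expressing human, cyno or mouse TMEM106B, read as anti-mouse-APC median fluorescence, live cells only, 30 min on ice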
T5 construct: on transiently transfected HEK293 cells
Method: as §2

mouse TMEM106B [12] = target: T2, mouse TMEM106B; test: FACS, HEK293 transfectants;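 also: flow cytometry binding of hybridoma supernatants to HEK293 cells transiently expressing human, cyno or mouse TMEM106B, read as anti-mouse-APC median fluorescence, live cells only, 30 min on ice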
Method: as §2

human TMEM106B [13] = target: T1, human TMEM106B; test: FACS HEK+huTMEM, 0.1 ug/ml;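 also: flow cytometry binding of purified mouse IgG antibodies to HEK293 cells transiently expressing TMEM106B, read as median fluorescence intensity with propidium iodide positive dead cells gated out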
Method: as §1

human TMEM106B [14] = target: T1, human TMEM106B; test: FACS HEK+huTMEM, 1.0 ug/ml
Method: as §1

human TMEM106B [15] = target: T1, human TMEM106B; test: FACS HEK+huTMEM, 0.01 ug/ml
Method: as §1

Binder	MFI (human TMEM106B [1])	MFI (human TMEM106B [2])	MFI (human TMEM106B [3])	MFI (mouse TMEM106B [4])	binding result (GST (Pierce))	MFI (human TMEM106B [5])	MFI (human TMEM106B [6])	fold over negative controls (human TMEM106B [7]) [fold]	Kd [8]	koff [8]	kon [8]	MFI (human TMEM106B [9])	fold-change over parental HEK293 (human TMEM106B [10]) [fold]	fold-change over parental HEK293 [11] [fold]	fold-change over parental HEK293 (mouse TMEM106B [12]) [fold]	MFI (human TMEM106B [13])	MFI (human TMEM106B [14])	MFI (human TMEM106B [15])
anti-TMEM106B antibody TM-10 (antibody, V domains shown) VH: QVQLQQSGAELVKPGASVKISCKGSGYAFSSYWMNWVKQRPGKGLEWIGQIYPGDGDTNYNGKFKGKATLTADKSSTTAYIHLSSLTSEDSAVYFCARWGHYDEAMDDWGQGTSVTVSS VL: DVVMTQTPLSLPVSLGDQASISCRSSQSLVHSNGKTYLHWYVQKPGQSPKLLIYKISNRFSGVPDRFSGSGSGTDFTLKISRVEAEDLGVYFCSQITHVPWTFGGGTKLESK	823	596	328	604	no binding	663	1090	> 2	17 nM and 22 nM	0.00054 s⁻¹ and 0.0006 s⁻¹	32000 M⁻¹ s⁻¹ and 28000 M⁻¹ s⁻¹	36500	37.1	65.9	45.9	21000	44400	3360
anti-TMEM106B antibody TM-12 (antibody, V domains shown) VH: EVQLQQSGAELMRPGASVKLSCTASGFNIQDYYMYWVKQRPEQGLEWIGRIDPEDGDAEYAPKFQGKATMTADTSSNTAYLQLSSLTSEDTAVYYCSTRVIYDGYYRTMDCWGQGTSVTVSS VL: DVLMTQIPLSLPVSLGDQASISCRSSQTIVHSNGNTYLEWYLKKPGQSPKLLIDKISNRFSGVPDRFSGSGSGTDFTLKISRVEAEDLGVYYCFQGSHVPYTFGGGTKLEIK	1940	2660	1330	3040	no binding	3150	4950	> 2	–	–	21000 M⁻¹ s⁻¹ and 29000 M⁻¹ s⁻¹	75300	25.9	44.1	32.7	19700	77800	3340
anti-TMEM106B antibody TM-30 (antibody, V domains shown, mouse IgG from hybridoma) VH: QVQLQQSGPELVKPGASVKLSCKASDNTFTNYDVNWVRQRPGQGLEWIGWIYPRDGTTIYNEKFKGRATLTVDTSSSTAYMELHSLTSEDSAVFFCARTLPQAMDYWGQGTSVTVSS VL: DVLMTQSPLSLPVSLGDQVSISCRSSQTIVHRNGNTYLEWYLQKPGQSPKLLIYKVSNRFSGVPDRFSGSGSGTDFTLKISRVEAEDLGVYYCFQGSHLPWTFGGGTKLEIK	–	–	–	–	–	3030	4040	> 2	–	–	–	61500	–	–	–	18400	63500	3070
anti-TMEM106B antibody TM-32 (antibody, V domains shown) VH: EVQLQQSGAELVRPGASVRLSCIASGFNIKDYYMYWVKQRPEQGLEWIGRIDPEDGDTEYVPKFQGKATMTADTSSNTAYLQLSSLTSEDIGVYYCTTRTWDLYYAVDNWGQGTSVTVSS VL: DVLMTQTPLSLPVSLGDQASISCRSSQNIVHSNGNTYLEWYLQKPGQSPKLLIDKVSNRFSGVPDRFSGSGSGTDFTLKISRVEAEDLGIYYCFQGSHVPFTFGSGTKLEIK	–	–	–	–	no binding	3930	6100	> 2	–	8.6e-05 s⁻¹ and 3.5e-05 s⁻¹	29000 M⁻¹ s⁻¹ and 40000 M⁻¹ s⁻¹	61100	–	–	–	20300	63300	4100
anti-TMEM106B antibody TM-21 (antibody, V domains shown) VH: EVQLVESGGGLVKPGGSLKLSCAASGFTFSNYAMSWVRETPEKRLEWVAFISDGGGYIYYADNVKDRFTISRDNAKNNLYLQMRHLKSEDTAMYYCARDGGTGFTYWGQGTLVTVSV VL: DIVMTQAAFSNPVTLGTSASISCRSSKSLLHSNGITYLFWYLQKPGQSPQLLIYQMSNLASGVPDRFSSSGSGTDFTLRISRVEAEDVGVYYCVQNLELPYTFGGGTKLEIK	1030	1200	672	706	no binding	2030	4230	> 2	2.9 nM and 4.1 nM	5.2e-05 s⁻¹ and 7.1e-05 s⁻¹	18000 M⁻¹ s⁻¹ and 17000 M⁻¹ s⁻¹	69400	29.8	48.9	46.5	15600	69400	2350
anti-TMEM106B antibody TM-17 (antibody, V domains shown) VH: QVQLQQSGAELIRPGTSVKVSCKASGYAFTDYLIEWVKQRPGQGLEWIGVINPGSGGTNYNEKFKGKAKLTADKSSSTAYMQLSSLTSEDSAVYFCVRSSYGVYVAYPMDYWGQGTSVTVSS VL: DIQMTQSPSSLSASLGERVSLTCRASQDIGSNLNWLQQEPDGTIKRLIYATSSLDSGVPKRFSGSRSGSDYSLTISSLESEDFVDYYCLQYASSPRTFGGGTKLEIK	953	437	305	385	no binding	379	425	> 2	22 nM and 28 nM	0.00063 s⁻¹ and 0.00097 s⁻¹	29000 M⁻¹ s⁻¹ and 35000 M⁻¹ s⁻¹	3960	12.6	14.3	6.42	1910	2620	1150
anti-TMEM106B antibody TM-11 (antibody, V domains shown) VH: QVQLKQSGPGQVQPSQSLSITCTVSGFSLSDYGVHWVRQSPGKGLEWLGVIWNNGNTDYNAAFISRLSINKDNSKSQVFFKMTSLQADDTAIYYCVRSLRPLHFDYWGQGTTVTVSS VL: DIVMTQSPSSLTMSVGQKVTMHCKSSQSLLNSNNLQNYLAWYQQKPGQSPTLLVYFASIRESGVPDRFIGSGSGTDFTLTISSVQAEDLADYFCQQHYNTPFTFGSGTKLEIR	1340	1870	866	1040	no binding	2870	5580	> 2	2.1 nM	5.2e-05 s⁻¹ and 5.7e-05 s⁻¹	24000 M⁻¹ s⁻¹ and 27000 M⁻¹ s⁻¹	57900	9.96	23.7	18.3	16200	54600	4280
anti-TMEM106B antibody TM-24 (antibody, V domains shown, mouse IgG from hybridoma) VH: QVQLKQSGPGQVQPSQSLSITCTVSGFSLSDYGVHWVRQSPGKGLEWLGVIWNNGNTDYNAAFISRLSINKDNSKSQVFFKMTSLQADDTAIYYCVRSLRPLHFDYWGQGTTVTVSS VL: DIVMTQSPSSLTMSVGQKVTMNCKSSQSLLNSNNQQNYLAWYQQKPGQSPKLLVYFASIRESGVPDRFIGSGSGTDFTLTINSVQAEDLADYFCQQHYSTPFTFGSGTKLEIR	–	–	–	–	–	2880	4480	> 2	–	–	–	66300	–	–	–	22000	64500	3620
anti-TMEM106B antibody TM-44 (antibody, V domains shown, mouse IgG from hybridoma) VH: EVQLVESGGGLVKPGGSLKLSCAASGFTFSDYGMHWVRQAPEKGLEWVAYISSGSSTIYYADTVKGRFTISRDNAKNTLFLQMTSLRSEDTAMYYCARNYGSPYAMDYWGQGTSVTVSS VL: not shown	392	168	522	202	–	404	466	–	–	–	–	512	–	–	–	309	337	300
anti-TMEM106B antibody TM-16 (antibody, V domains shown) VH: EVQLQQSGAELVRPGASVKLSCTTSGFNIKDYYMHWVKQRTEQGLEWIGRIDPEDGETKYAPEFQGKATITSDTSSNTAFLQLSSLTSEDTAVYYCASSQPFTYWGQGTLVTVSA VL: QIVLTQSPAIMSASPGEKLTMTCSASSSLNYMYWYQQKPGSSPRLLIYDTSNLASGVPVRFSGSGSGTSYSLTISRMEAEDGATYYCQQWTSFPPTFGAGTKLELK	605	548	292	392	no binding	409	557	> 2	–	–	–	5980	8.3	17.6	1.42	680	2140	351
anti-TMEM106B antibody TM-20 (antibody, V domains shown) VH: EVQLQQSGAELVRPGASVKLSCTTSGFNIKDYYMHWVKQRTEQGLEWIGRIDPEDGETKYAPEFQGKATITSDTSSNTAFLQLSSLTSEDTAVYYCASSQPFTYWGQGTLVTVSA VL: QIVLTQSPAIMSASPGEKLTMTCSASSSLNYMYWYQQKPGSSPRLLIYDTSNLASGVPVRFRGSGSGTSYSLTISRMEAEDGATYYCQQWTSFPPTFGAGTKLELK	–	–	–	–	no binding	–	–	–	–	–	–	–	–	–	–	–	–	–

From patent publication US20230303681A1 (published 2023)
